Laboratory results: patent US20170355771A1 (Biogen, published 2017)

Columns and labels:
[1] = target: T1, GPIIb/IIIa (SEQ ID NOs: 23 and 24) (human, UniProt P08514 32-994; P05106 27-716); test: Bio-Layer Interferometry (OctetRed), monovalent format, yeast-purified Fab; apparent monovalent affinity
T1 construct: also called GPIIb/IIIa complex
Method: (§1) BLI was performed on the OctetRed94 instrument, manufactured by ForteBio, according to standard procedures.

[2] = target: T1, GPIIb/IIIa (SEQ ID NOs: 23 and 24); test: Bio-Layer Interferometry (OctetRed), monovalent format, yeast-purified Fab; apparent dissociation rate Kdis
Method: as §1

T1 sequence (P08514 32-994 limits assumed, chain 1 of 2): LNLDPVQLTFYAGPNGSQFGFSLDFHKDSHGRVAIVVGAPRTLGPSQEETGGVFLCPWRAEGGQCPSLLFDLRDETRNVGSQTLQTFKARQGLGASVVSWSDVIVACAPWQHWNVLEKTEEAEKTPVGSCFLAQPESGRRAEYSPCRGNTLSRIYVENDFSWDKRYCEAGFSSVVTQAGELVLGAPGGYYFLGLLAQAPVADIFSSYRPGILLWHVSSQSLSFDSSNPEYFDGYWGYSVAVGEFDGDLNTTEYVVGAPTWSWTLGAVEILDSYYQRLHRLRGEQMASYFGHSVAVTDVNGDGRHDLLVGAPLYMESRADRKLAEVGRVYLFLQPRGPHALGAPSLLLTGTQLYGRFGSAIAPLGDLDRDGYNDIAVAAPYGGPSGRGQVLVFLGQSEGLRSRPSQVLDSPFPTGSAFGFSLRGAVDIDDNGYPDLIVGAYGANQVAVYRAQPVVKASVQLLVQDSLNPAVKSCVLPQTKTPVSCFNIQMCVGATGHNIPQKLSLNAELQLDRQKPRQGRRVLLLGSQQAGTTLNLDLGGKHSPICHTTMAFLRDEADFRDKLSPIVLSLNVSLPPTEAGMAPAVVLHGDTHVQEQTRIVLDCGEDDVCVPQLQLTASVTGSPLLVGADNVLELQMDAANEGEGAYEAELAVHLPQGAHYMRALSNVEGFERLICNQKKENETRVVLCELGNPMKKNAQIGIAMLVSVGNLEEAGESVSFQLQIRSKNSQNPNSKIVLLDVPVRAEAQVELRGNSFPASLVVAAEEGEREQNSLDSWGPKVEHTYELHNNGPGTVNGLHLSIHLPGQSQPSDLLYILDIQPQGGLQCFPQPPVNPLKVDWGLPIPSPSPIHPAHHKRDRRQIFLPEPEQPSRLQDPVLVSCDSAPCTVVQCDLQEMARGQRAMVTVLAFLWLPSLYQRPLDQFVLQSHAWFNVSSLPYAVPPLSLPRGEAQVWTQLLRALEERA
T1 sequence (P05106 27-716 limits assumed, chain 2 of 2): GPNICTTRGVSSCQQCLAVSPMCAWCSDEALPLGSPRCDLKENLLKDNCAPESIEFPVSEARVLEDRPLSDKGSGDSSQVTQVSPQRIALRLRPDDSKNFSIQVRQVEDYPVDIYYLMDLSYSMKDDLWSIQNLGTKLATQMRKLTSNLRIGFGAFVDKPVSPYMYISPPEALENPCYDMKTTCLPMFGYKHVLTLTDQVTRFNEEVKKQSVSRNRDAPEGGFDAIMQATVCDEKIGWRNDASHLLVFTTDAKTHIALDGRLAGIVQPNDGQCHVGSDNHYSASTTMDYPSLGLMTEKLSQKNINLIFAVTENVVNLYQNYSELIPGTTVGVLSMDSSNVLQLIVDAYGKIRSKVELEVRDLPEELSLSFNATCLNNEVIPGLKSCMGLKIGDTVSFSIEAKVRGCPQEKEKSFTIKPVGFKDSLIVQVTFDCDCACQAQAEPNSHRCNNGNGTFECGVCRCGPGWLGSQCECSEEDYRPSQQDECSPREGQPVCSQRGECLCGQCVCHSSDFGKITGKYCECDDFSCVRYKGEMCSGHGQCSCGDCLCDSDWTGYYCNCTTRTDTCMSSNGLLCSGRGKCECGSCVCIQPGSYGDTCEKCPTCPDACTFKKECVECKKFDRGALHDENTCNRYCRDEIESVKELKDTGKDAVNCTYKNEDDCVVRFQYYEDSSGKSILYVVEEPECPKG

Binder	Kd [1] [nM]	koff [2] [s⁻¹]
affinity matured h34D10 Fab VH100/VL0 (Fab, V domains shown, Yeast-expressed, protein A purified, then made into Fab) VH: EVQLVESGGGLVKPGGSLRLSCAASGFTFGAYAMSWVRQAPGKGLVWVASISSGGTTYYPDSVKRQFTISRDNAKNTLYLQMNSLRAEDTAVYYCTRGGDYSYALDYWGQGTLVTVSS VL: EIVMTQSPATLSVSPGERATLSCRASSSVNYMYWYQQKPGQAPRLLIYYTSNLAPGIPARFSGSGSGTEFTLTISSLQSEDFAVYYCQQFSSSPWTFGQGTKVEIK	29	0.00822
affinity matured h34D10 Fab VH114/VL0 (Fab, V domains shown, Yeast-purified Fab) VH: EMQLVESGGGLVKPGGSLRLSCAASGFTFSAYAMSWVRQAPGKGLVWVASISSGGTTYYPDSVKRQFTISRDNAKNTLYLQMNSLRAEDTAVYYCTRGGDYGYALDYWGQGTLVTVSS VL: EIVMTQSPATLSVSPGERATLSCRASSSVNYMYWYQQKPGQAPRLLIYYTSNLAPGIPARFSGSGSGTEFTLTISSLQSEDFAVYYCQQFSSSPWTFGQGTKVEIK	130	0.0393
affinity matured h34D10 Fab VH105/VL0 (Fab, V domains shown, Yeast-purified Fab) VH: EVQLVESGGGLVKPGGSLRLSCAASGFTFSAYAMSWVRQAPGKGLVWVASISSGGTTYYPDSVKRQFTISRDNAKNTLYLQMNSLRAEDTAVYYCTRGGDYSYALDYWGQGTLVTVSS VL: EIVMTQSPATLSVSPGERATLSCRASSSVNYMYWYQQKPGQAPRLLIYYTSNLAPGIPARFSGSGSGTEFTLTISSLQSEDFAVYYCQQFSSSPWTFGQGTKVEIK	42	0.0114
affinity matured h34D10 Fab VH113/VL0 (Fab, V domains shown, Yeast-purified Fab) VH: EVQLVESGGGLVKPGGSLRLSCAASGFTFSAYAMSWVRQAPGKGLVWVAGISSGGTTYYPDSVKRQFTISRDNAKNTLYLQMNSLRAEDTAVYYCTRGGDYGYALDYWGQGTLVTVSS VL: EIVMTQSPATLSVSPGERATLSCRASSSVNYMYWYQQKPGQAPRLLIYYTSNLAPGIPARFSGSGSGTEFTLTISSLQSEDFAVYYCQQFSSSPWTFGQGTKVEIK	160	0.0372
affinity matured h34D10 Fab VH108/VL0 (Fab, V domains shown, Yeast-purified Fab) VH: EVQLVESGGGLVKPGGSLRLSCAASGFTFSAYAMSWVRQAPGKGLVWVASISSDGTTYYPDSVKRQFTISRDNARNTLYLQMNSLRAEDTAVYYCTRGGDYSYALDYWGQGTLVTVSS VL: EIVMTQSPATLSVSPGERATLSCRASSSVNYMYWYQQKPGQAPRLLIYYTSNLAPGIPARFSGSGSGTEFTLTISSLQSEDFAVYYCQQFSSSPWTFGQGTKVEIK	49	0.0193
affinity matured h34D10 Fab VH110/VL0 (Fab, V domains shown, Yeast-purified Fab) VH: EVQLVESGGGLVKPGGSLRLSCAASGFTFNAYAMSWVRQAPGKGLVWVASISSGGTTYYPDSVKRQFTISRDNAKNTLYLQMNSLRAEDTAVYYCTRGGDYGYALDYWGQGTLVTVSS VL: EIVMTQSPATLSVSPGERATLSCRASSSVNYMYWYQQKPGQAPRLLIYYTSNLAPGIPARFSGSGSGTEFTLTISSLQSEDFAVYYCQQFSSSPWTFGQGTKVEIK	130	0.0337
affinity matured h34D10 Fab VH101/VL0 (Fab, V domains shown, Yeast-purified Fab) VH: EVQLVESGGGLVKPGGSLRLSCAASGFTFSAYAMSWVRQAPGKGLVWVASISSGGTTYYPDSVERQFTISRDNAKNTLYLQMNSLRAEDTAVYYCTRGGDYSYALDYWGQGTLVTVSS VL: EIVMTQSPATLSVSPGERATLSCRASSSVNYMYWYQQKPGQAPRLLIYYTSNLAPGIPARFSGSGSGTEFTLTISSLQSEDFAVYYCQQFSSSPWTFGQGTKVEIK	25	0.00836
affinity matured h34D10 Fab VH109/VL0 (Fab, V domains shown, Yeast-purified Fab) VH: EVQLVESGGGLVKPGGSLRLSCAASGFTFSAYAMSWVRQAPGKGLVWVASISSGGTTDYPDSVKRQFTISRDNAKNTLYLQMNSLRAEDTAVYYCTRGGDYGYALDYWGQGTLVTVSS VL: EIVMTQSPATLSVSPGERATLSCRASSSVNYMYWYQQKPGQAPRLLIYYTSNLAPGIPARFSGSGSGTEFTLTISSLQSEDFAVYYCQQFSSSPWTFGQGTKVEIK	120	0.031
affinity matured h34D10 Fab VH112/VL0 (Fab, V domains shown, Yeast-purified Fab) VH: EVQLVESGGGLVKPGGSLRLSCAASGFTFSAYAMSWVRQAPGEGLVWVAGISSGGTTYYPDSVKRQFTISRDNAKNTLYLQMNSLRAEDTAVYYCTRGGDYGYALDYWGQGTLVTVSS VL: EIVMTQSPATLSVSPGERATLSCRASSSVNYMYWYQQKPGQAPRLLIYYTSNLAPGIPARFSGSGSGTEFTLTISSLQSEDFAVYYCQQFSSSPWTFGQGTKVEIK	160	0.0352
affinity matured h34D10 Fab VH115/VL0 (Fab, V domains shown, Yeast-purified Fab) VH: GVQLVESGGGLVKPGGSLRLSCAASGFTFSAYAMSWVRQAPGKGLVWVASISSGGTTYYPDSVKRQFTISRDDAKNTLYLQMNSLRAEDTAVYYCTRGGDYGYALDYWGQGTLVTVSS VL: EIVMTQSPATLSVSPGERATLSCRASSSVNYMYWYQQKPGQAPRLLIYYTSNLAPGIPARFSGSGSGTEFTLTISSLQSEDFAVYYCQQFSSSPWTFGQGTKVEIK	120	0.0429
affinity matured h34D10 Fab VH107/VL0 (Fab, V domains shown, Yeast-purified Fab) VH: EVQLVESGGGLVKPGESLRLSCAASGFTFSAYAMSWVRQAPGEGLVWVASISSGGTTYYPDSVKRQFTISRDNAKNTLYLQMNSLRAEDTAVYYCTRGGDYSYALDYWGQGTLVTVSS VL: EIVMTQSPATLSVSPGERATLSCRASSSVNYMYWYQQKPGQAPRLLIYYTSNLAPGIPARFSGSGSGTEFTLTISSLQSEDFAVYYCQQFSSSPWTFGQGTKVEIK	48	0.0142
affinity matured h34D10 Fab VH117/VL0 (Fab, V domains shown, Yeast-purified Fab) VH: EAQLVESGGGLVKPGGSLRLSCAASGFTFSAYAMSWVRQAPGKGLVWVASISSGGTTYYPDSVKRQFTISRDNAKNTLYLQMNSLRAEDTAVYYCTRGGDYGYALDYWGQGTLVTVSS VL: EIVMTQSPATLSVSPGERATLSCRASSSVNYMYWYQQKPGQAPRLLIYYTSNLAPGIPARFSGSGSGTEFTLTISSLQSEDFAVYYCQQFSSSPWTFGQGTKVEIK	160	0.0435
affinity matured h34D10 Fab VH103/VL0 (Fab, V domains shown, Yeast-purified Fab) VH: EVQLVESGGGLVKPGGSLRLSCAASGFTFSAYAMSWVRQAPGKGLVWVASISSGGTTYYPDSVKRQFTISRDNAKNTLYLQVNSLRAEDTAVYYCTRGGDYSYALDYWGQGTLVTVSS VL: EIVMTQSPATLSVSPGERATLSCRASSSVNYMYWYQQKPGQAPRLLIYYTSNLAPGIPARFSGSGSGTEFTLTISSLQSEDFAVYYCQQFSSSPWTFGQGTKVEIK	37	0.0103
affinity matured h34D10 Fab VH119/VL0 (Fab, V domains shown, Yeast-purified Fab) VH: GVQLVESGGGLVKPGGSLRLSCAASGFTFSAYAMSWVRQAPGKGLVWVASISSGGTTYYPDSVKRQFTISRDNAKNTLYLQMNSLRAEDTAVYYCTRGGDYGYALDYWGQGTLVTVSS VL: EIVMTQSPATLSVSPGERATLSCRASSSVNYMYWYQQKPGQAPRLLIYYTSNLAPGIPARFSGSGSGTEFTLTISSLQSEDFAVYYCQQFSSSPWTFGQGTKVEIK	140	0.0482
affinity matured h34D10 Fab VH118/VL0 (Fab, V domains shown, Yeast-purified Fab) VH: GVQLVESGGGLVKPGGSLRLSCAASGFTFSAYAMSWVRQAPGKGLVWVASISSGGTTYYPDSVKRQFTISRDNAKNTLYLQMNSLRAEDTAVYYCTRGGDYGYALDYWGQGALVTVSS VL: EIVMTQSPATLSVSPGERATLSCRASSSVNYMYWYQQKPGQAPRLLIYYTSNLAPGIPARFSGSGSGTEFTLTISSLQSEDFAVYYCQQFSSSPWTFGQGTKVEIK	200	0.0478
affinity matured h34D10 Fab VH116/VL0 (Fab, V domains shown, Yeast-purified Fab) VH: EVQLVESGGGLVKPGGSLRLSCAASGFTFSAYAMSWVRQAPGKGLVWVASISSGGTTYYPDSVKRQFTISRDDAKNTLYLQMNSLRAEDTAVYYCTRGGDYGYALDYWGQGTLVTVSS VL: EIVMTQSPATLSVSPGERATLSCRASSSVNYMYWYQQKPGQAPRLLIYYTSNLAPGIPARFSGSGSGTEFTLTISSLQSEDFAVYYCQQFSSSPWTFGQGTKVEIK	130	0.0432
affinity matured h34D10 Fab VH106/VL0 (Fab, V domains shown, Yeast-purified Fab) VH: EVQLVECGGGLVKPGGSLRLSCAASGFTFSAYAMSWVRQAPGKGLVWVASISSGGTTYYPDSVKRQFTISRDNAKNTLYLQMNSLRAEDTAVYYCTRGGDYSYALDYWGQGTLVTVSS VL: EIVMTQSPATLSVSPGERATLSCRASSSVNYMYWYQQKPGQAPRLLIYYTSNLAPGIPARFSGSGSGTEFTLTISSLQSEDFAVYYCQQFSSSPWTFGQGTKVEIK	44	0.0127
affinity matured h34D10 Fab VH104/VL0 (Fab, V domains shown, Yeast-purified Fab) VH: EVQLVESGGGLVKPGGSLRLSCAASGFTFSAYAMSWVRQAPGKGLVWVASISSGGTTYYPDSVKRQFTISRDNAKNTLYLQMNSLRAEDTAVYYCTRGGDYSYALDYWGRGTLVTVSS VL: EIVMTQSPATLSVSPGERATLSCRASSSVNYMYWYQQKPGQAPRLLIYYTSNLAPGIPARFSGSGSGTEFTLTISSLQSEDFAVYYCQQFSSSPWTFGQGTKVEIK	31	0.0113
affinity matured h34D10 Fab VH111/VL0 (Fab, V domains shown, Yeast-purified Fab) VH: EVQLVESGGGLVKPGGSLRLSCAASGFTFNAYAMSWVRQAPGEGLVWVASISSGGTTYYPDSVKRQFTISRDNAKNTLYLQMNSLRAEDTAVYYCTRGGDYGYALDYWGQGTLVTVSS VL: EIVMTQSPATLSVSPGERATLSCRASSSVNYMYWYQQKPGQAPRLLIYYTSNLAPGIPARFSGSGSGTEFTLTISSLQSEDFAVYYCQQFSSSPWTFGQGTKVEIK	150	0.0352
affinity matured h34D10 Fab VH102/VL0 (Fab, V domains shown, Yeast-purified Fab) VH: EVQLVESGGGLVKPGGSLRLSCAASGFTFSAYAMSWVRQAPGKGLVWVASISSGGTTYYPDSVKRQFTISRDNAKNTLYLQMNSLRAEDTAVYYCTRGGDYSYALDYWGQGTLVTVSF VL: EIVMTQSPATLSVSPGERATLSCRASSSVNYMYWYQQKPGQAPRLLIYYTSNLAPGIPARFSGSGSGTEFTLTISSLQSEDFAVYYCQQFSSSPWTFGQGTKVEIK	36	0.00977
